Columns and labels:
MS2 coat protein = experiment: apparent KD of MS2 coat protein; higher = weaker reporter binding; details: Eterna round: R107
Description: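 RNA-MaP round R107: designed RNA switches with theophylline, tryptophan, arginine or FMN aptamers are transcribed on-chip within common flanks. They are titrated with SNAP-549-labelled MS2 coat protein in RNA-MaP buffer (100 mM Tris pH 7.5, 80 mM KCl, 4 mM MgCl2), without ligand or with the indicated ligand. Median apparent KD per design.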

[1] = test system: K4 kissing-loop RNA reporter; experiment: apparent KD of K4 kissing-loop reporter; higher = weaker reporter binding; details: Eterna round: R107;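 further: bound reporter read as fluorescence of individual clusters on recovered sequencing chips by microscopy, with normalized cluster intensities fitted with a binding model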
Description: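 RNA-MaP round R107: designed RNA switches with theophylline, tryptophan, arginine or FMN aptamers are transcribed on-chip within common flanks. They are titrated with a labelled K4 kissing-loop RNA reporter in RNA-MaP buffer (100 mM Tris pH 7.5, 80 mM KCl, 4 mM MgCl2), without ligand or with the indicated ligand. Median apparent KD per design.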

[2] = input ligand: theophylline 20 uM
[3] = input ligand: theophylline 2 mM
[4] = input ligand: tryptophan 2.4 mM

Sequence | apparent KD of MS2 coat protein (MS2 coat protein; input ligand: arginine 13.2 mM) | apparent KD of MS2 coat protein (MS2 coat protein; input ligand: none) | apparent KD of MS2 coat protein (MS2 coat protein; [2]) | apparent KD of MS2 coat protein (MS2 coat protein; [3]) | apparent KD of MS2 coat protein (MS2 coat protein; [4]) | apparent KD of K4 kissing-loop reporter ([1]; input ligand: FMN 200 uM) | apparent KD of K4 kissing-loop reporter ([1]; input ligand: arginine 13.2 mM) | apparent KD of K4 kissing-loop reporter ([1]; input ligand: none) | apparent KD of K4 kissing-loop reporter [1, 2] | apparent KD of K4 kissing-loop reporter [1, 4]
AAAAGUAGGUCCAAUAAAACUACAUGUGAAGGAGCGCCCGAAAGGGCAGGUAGGUCGCACAUGAGGAUCACCCAUGUCCUACAAA [ArgEX 7 #OpenEnded] | 0.0501 µM | 0.0861 µM | 0.103 µM | 0.0861 µM | 0.0718 µM | – | – | – | – | –
AAAAUCCUACCUGAGGAUCACCCAGGUGAAGGAGCGCCCGAAAGGGCAGGUAGGUCGCACCUGAGGAUCACCCUGGUAAACCUAA [ArgEX 22 #DoubleMS2 #OpenEnded] | 0.0309 µM | 0.044 µM | 0.0476 µM | 0.0568 µM | 0.0406 µM | – | – | – | – | –
AAAGCCACUUCGGCCGCCACUACAACAUGAGGAUCACCCAUGUACCUCGUGUACGGUCCGAGGAGUAGGACCGGGAAGUGGUGGA [(T1'')-(Trp1)-(Ms2)-(M')-(T2')-(M'')-(Trp2)-(T1')] | 0.094 µM | – | 0.193 µM | 0.175 µM | – | – | – | – | – | –
AAAUAAAUAACUGAUACCAGUGGACUGACAUGAGGAUCACCCAUGUUGGGUUUUGUUGUCCACCCUUGGCAGCAGGGAUAUAAAA [#24 Exclusion-TheophyllineB] | 0.0244 µM | 0.0385 µM | 0.0547 µM | 0.0709 µM | 0.0434 µM | – | – | – | – | –
AAAUAAAUACAUGAGGAUCACCCAUGUGAAGGAGCGCGCGUUAGCGCAGGUAGGUCGCACAUGAAUAACUCCGCGCGAAAGCGCA [MAT - Exclusion Arginine A - Mod of Eli - D11] | 0.0118 µM | 0.0174 µM | 0.0237 µM | 0.0196 µM | 0.0164 µM | – | – | – | – | –
AAAUAAAUACAUGAGGAUCACCCAUGUGAAGGAGCGGCCGUUAGGCCAGGUAGGUCGCGCAUGAAUAACUCCGUGCAUAAGCACA [MAT - Exclusion Arginine A - Mod of Eli - D18] | 0.0106 µM | 0.0111 µM | 0.0166 µM | 0.0122 µM | 0.0123 µM | – | – | – | – | –
AACAUGAGGAUCACCCAUGUACCUUUCGAUCGAGGACCGGUACGGCCGCCACUCGAAAACAUGAGGAUCACCCAUGUUCAACAGG [Tryp A SS t3] | 0.0587 µM | – | 0.128 µM | 0.154 µM | – | – | – | – | – | –
AACAUGAGGAUCACCCAUGUGUCCUCGAAACGAGGACCGGUACGGCCGCCACUCGAGCUAUGUUGACGAAAAGUCAGCAUAGCAA [Mat - Exclusion - Trytophan A - D13] | 0.123 µM | 0.276 µM | 0.316 µM | 0.374 µM | 1.08 µM | – | – | – | – | –
AACCGAGGCUAUCCUCUAAGAAUAUGUGAUACCAGAAUAAUUUUAUUCCCUUGGCAGCAUGACAUGAGGAUCACCCAUGUGUCUU [SSTheo A #7] | 0.07 µM | – | 0.136 µM | – | 0.136 µM | – | – | – | – | –
AACGUAUACAGAAGGAGCGUGAUUUAUUAUUCUUUAAGAUAUACAUGAGGAUCACCCAUGUCACAGGUAGGUCGCUGUAUUCGUA [JR_ExcArginiB_Sub025] | 0.031 µM | 0.0343 µM | 0.0423 µM | 0.0367 µM | 0.0346 µM | – | – | – | – | –
AACGUAUACAGAAGGAGCGUGAUUUGUGUUACUCAUUCAUAUACAUGAGGAUCACCCAUGUCACAGGUAGGUCGCUGUAUUCGUA [JR_ExcArginiB_Sub022] | 0.0398 µM | 0.166 µM | 0.128 µM | 0.0871 µM | 0.0538 µM | – | – | – | – | –
AACUACUCGAGGUGAUCCUACGAGUGGCAACGAGGACCGGUACGGCCGCCACUCGAAUAAACAUGAGGAUCACCCAUGUACAAAU [T''-M'-T'-T-MS2 - Design 12] | 0.0922 µM | – | 0.259 µM | 0.22 µM | – | – | – | – | – | –
AAGGUGAUCCUCGAUACCAGCUCAACAUGAGGAUCACCCAUGUAAGCCUGGAAACAGGCGAGCCCUUGGCAGCGAGUUACAUCAA [(M)'-(Theo1)-(Ms2)-(Theo2)-(M'')] | 0.0329 µM | – | 0.0782 µM | – | 0.0186 µM | – | – | – | – | –
AAGUAAACAUGAGCAAAGCUCAUGUGCGAAGGAGCGGCGGAAACGCCAGGUAGGUCGCGCACAUGAGCAUCAGCCAUGUGUAUCA [Omei Arginine B SS A v2] | 0.0453 µM | 0.031 µM | 0.0335 µM | 0.0221 µM | 0.009 µM | – | – | – | – | –
AAGUGGCACGGAAGGAGCGAGUUUACCUAUUACAUGAGGAUCACCCAUGUGUAUAAUGGGACUCAGGUAGGUCGCCGUUGUCACU [Same State Arginine B GF 25] | 0.0315 µM | 0.0357 µM | 0.049 µM | 0.0443 µM | 0.0316 µM | – | – | – | – | –
AAUAAACAUGAGGAUCACCCAUGUAGGGUGCGAGGACCGGUACGGCCGCCACUCGGGUGAAAACAUGAGGAUCACCCAUGUUAAA [Cloverleaf #DoubleMS2 #GUTurnoff] | 0.0755 µM | – | 0.176 µM | 0.229 µM | – | – | – | – | – | –
AAUAAAUCGCCUGAUACCAGCGCUGGCGGACAUGAGGAUCACCCAUGUGUUACAGGCGGACGCCCUUGGCAGCGGAGCGGGAUCU [U-Shape] | 0.0162 µM | 0.0202 µM | 0.0214 µM | 0.023 µM | 0.0196 µM | – | – | – | – | –
UUCCGGGCCGAAGGAUAUUGGAGUGAUGUUUCAAGACGUUCGUCCCAGCCCAUAGUAACUAUCGCCCAAGAAGGUCGUAUUGAAU [theeternabot_exclusion_KL_FMN_B_13] | – | – | – | – | – | 0.227 µM | 0.177 µM | 0.243 µM | 0.189 µM | 0.157 µM
UUCGAUCAGUGAUGUUGAUCAAUAGUCGAAGGAGCGCUAUAGAUAGCAGGUAGGUCGCGACUACAAGGUGUUAAGACACCUCGAA [Arg A SS t9] | – | – | – | – | – | 0.505 µM | 0.43 µM | 0.525 µM | 0.443 µM | 0.431 µM
UUCUUGAUGGAAACAUCGAGAAUUACUGAUACCAGUAUCGAUAGAUACCCUUGGCAGCAGAAUCAGUAAUAACGAGUGAUGUUCG [Ex Theophylline A K4 4] | – | – | – | – | – | 0.313 µM | 0.254 µM | 0.304 µM | 0.321 µM | 0.243 µM
UUGGUCUUUUAAGGAUAUCAUACUCCACUGAGCGAGUGAUGUUCGCUCCUGUUACGCCUGGGACCGUGAGAAGGUAAAGUACCGU [theeternabot_sameState_KL_FMN_B_5] | – | – | – | – | – | 0.149 µM | 0.138 µM | 0.163 µM | 0.147 µM | 0.137 µM
UUGUUUGGUUGAGAGGUUGGGCGAGAUGAUACCAGUAGAGAAGAGUACCCUUGGCAGCAUAGGAGAGAUAUAGUGAUGUUGUAUA [SSTheophA.R] | – | – | – | – | – | 0.487 µM | 0.424 µM | 0.42 µM | 0.525 µM | 0.402 µM
UUUAACGAGUGAUGUUCGAAGAGUAAUGGUGAGGAUAUCGAUUUUUCGAGAAGGCACCUCGAAGUGAUACGAAAGUAUCGCUUCG [FMN A 5] | – | – | – | – | – | 0.171 µM | 0.266 µM | 0.266 µM | 0.269 µM | 0.181 µM
UUUAUAAUGUCGGCCGCCACUGGAUUAAUAUUUGUAUAAUCUAGUUCAAAGUGAUGUUUUGAGUCCAGGACCGGGACAUUUGUUA [JR_ExcTryptoB_Sub003] | – | – | – | – | – | 0.57 µM | 0.49 µM | 0.582 µM | 0.509 µM | 0.407 µM
UUUAUUUUCUGAGGAUAUCGUUUUACUGAAGUGAUGUUUCAGUAUUUUCAUAUUAUAUAUAAUUUUCGAGAAGGCAGUAUUAUUA [JR_Nu_SSFMNB_Sub027] | – | – | – | – | – | 0.0835 µM | 0.0604 µM | 0.0637 µM | 0.0722 µM | 0.0643 µM
UUUCCAGUGAUGUUGGAGAAAACCGAGGAAGGAGCGGACUCUUGUCCAGGUAGGUCGCCUCGUCUCCCAUUGGCAGAGCGGACCC [Enlaonbian] | – | – | – | – | – | 0.232 µM | 0.239 µM | 0.249 µM | 0.574 µM | 0.211 µM
UUUUUAUAAGAGGAUACCAGUACAAAUAAAGUACAUUAAUAGUAGAGUGAUGUUCUAAAGUACCCUUGGCAGCUUAGAGUAAGUU [ExTheophylB.C] | – | – | – | – | – | 0.161 µM | 0.281 µM | 0.174 µM | 0.239 µM | 0.115 µM
UUUUUGGAGAAUUAUAGUGAUGUUAUGAAGGAGGAUAUCUAAAGAUGGAGAAGGUUUAAUAGUUAAGGGAUGGAGGGUGGGUGGG [ExFMNA.Q] | – | – | – | – | – | 0.372 µM | 0.18 µM | 0.32 µM | 0.208 µM | 0.229 µM
UUUUUUAAGAUAUUGACCAACCCGAAGCUACGAGGACCGGUACGGCCGCCACUCGCCAGUGAUGUUGGCGACUGGUGAAACCAUG [KL-XTryp-A24] | – | – | – | – | – | 0.126 µM | 0.0989 µM | 0.106 µM | 0.105 µM | 0.185 µM
UUUUUUAGUUGAGUUAUACAUAGCGGACUAUAGGAUAUCUAGAAAUAGAGAAGGAUAAGAGUGAUGUUCUUAUUCAACUAUAGUG | – | – | – | – | – | 0.101 µM | 0.0874 µM | 0.0909 µM | 0.109 µM | 0.0916 µM
